Experiment [1] addresses RPA70N (aa 1-120 of RPA70) used for ITC and NMR (UniProt P27694). Briefly: ITC; 10 μl injections of 336 μM Tag(84-130) into 60 μM RPA70N in the cell; 25 mM Tris-Cl pH 7.5, 100 mM NaCl; single site model; average of three trials. (In general: In ITC the heat of successive injections is recorded.)
For experiment [2], the target named is T1, Simian virus 40 Large T-antigen (Tag), full length (Simian virus 40 (SV40), UniProt P03070 1-708).
T1 construct: SV40 Large T antigen, full length; The methods tell the removal of GST from full-length Tag for 'ITC and NMR studies'; for the pull-down the legend says only 'purified as described in Materials and Methods'; also called Large Tumor Antigen; full-length Tag; source: Rosetta 2 cells, GST-tagged, purified (glutathione agarose), treated with H3C PreScission protease
Briefly: pull-down; GST-RPA70N (WT or R41/43E) or GST on glutathione beads, purified full-length Tag as prey; 4°C, 30 mM HEPES KOH pH 7.8, 10 mM KCl, 7 mM MgCl2, 10 μM ZnCl2, 2% non-fat dry milk; washes with 75 mM KCl; blot with pAb101 and anti-GST; also without antibody or after pre-incubation of Tag with control non-immune IgG. The conditions noted are these: both partners purified.

The results in this text go back to paper PMC4337903, “Simian Virus Large T Antigen Interacts with the N-Terminal Domain of the 70 kD Subunit of Replication Protein A in the Same Mode as Multiple DNA Damage Response Factors” (PLoS ONE, 2015).

Take “Tag(84-130), GST removed (domain or fragment)”: in experiment [1], the Kd – broadly, the free concentration of one partner at which half of the binding sites on the other are occupied at equilibrium, for simple one-to-one binding – was found to be 1280 nM.

B1: GST-RPA70N (N-terminal domain of the 70 kDa subunit of Replication Protein A, residues 1-120) (domain or fragment, UniProt P27694 1-120, looked up)
chain: MVGQLSEGAIAAIMQKGDTNIKPILQVINIRPITTGNSPPRYRLLMSDGLNTLSSFMLATQLNPLVEEEQLSSNCVCQIHRFIVNTLKDGRRVVILMELEVLKSAEAVGVKIGNPVPYNE
notes: also called GST-RPA70N WT; source: Rosetta 2 cells, purified (glutathione agarose)
Consider B1, for which the binding result in experiment [2] is reported as “binds”.
